According to patent US20240190948A1 (Chugai, published 2024):

T1: mouse FcγRI (mouse, UniProt P26151 25-297)
T1 construct: also called mFcγRI; mouse FcγR1
T1 sequence: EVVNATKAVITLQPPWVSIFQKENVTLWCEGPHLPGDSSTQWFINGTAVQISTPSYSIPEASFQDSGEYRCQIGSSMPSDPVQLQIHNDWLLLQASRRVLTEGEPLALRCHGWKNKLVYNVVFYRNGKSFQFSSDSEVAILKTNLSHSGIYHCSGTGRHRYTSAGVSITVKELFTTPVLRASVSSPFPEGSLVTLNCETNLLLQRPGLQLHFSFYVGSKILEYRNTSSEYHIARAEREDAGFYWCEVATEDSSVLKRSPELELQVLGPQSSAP

T2: human FcγRIIa (167R) (human, UniProt P12318 36-217)
T2 construct: also called human FcγR2a allelic variant 167R
T2 chain: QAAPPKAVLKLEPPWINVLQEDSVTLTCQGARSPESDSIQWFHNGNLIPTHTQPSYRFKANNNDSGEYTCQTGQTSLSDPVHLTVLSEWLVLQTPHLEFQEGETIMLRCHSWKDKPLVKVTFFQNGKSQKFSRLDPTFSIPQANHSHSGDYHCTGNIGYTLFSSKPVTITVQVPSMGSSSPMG

T3: human FcγRIIb (human, UniProt P31994 43-217)
T3 construct: also called human FcγR2b
T3 sequence: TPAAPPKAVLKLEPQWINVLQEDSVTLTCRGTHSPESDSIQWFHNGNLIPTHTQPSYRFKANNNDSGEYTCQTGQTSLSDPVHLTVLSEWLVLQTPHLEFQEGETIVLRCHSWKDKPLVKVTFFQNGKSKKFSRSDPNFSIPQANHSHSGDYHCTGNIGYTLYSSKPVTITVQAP

T4: human FcγRIIIb (NA1) (human, UniProt O75015 17-200)
T4 construct: also called human FcγR3b allelic variant NA1
T4 chain: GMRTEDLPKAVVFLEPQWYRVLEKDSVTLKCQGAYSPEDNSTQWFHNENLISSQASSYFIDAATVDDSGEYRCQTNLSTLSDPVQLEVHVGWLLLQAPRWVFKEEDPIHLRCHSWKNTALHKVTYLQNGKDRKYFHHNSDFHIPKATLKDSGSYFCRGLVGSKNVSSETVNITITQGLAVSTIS

T5: human FcγRIIIb (NA2) (human, UniProt O75015 17-200)
T5 construct: also called human FcγR3b allelic variant NA2
T5 chain: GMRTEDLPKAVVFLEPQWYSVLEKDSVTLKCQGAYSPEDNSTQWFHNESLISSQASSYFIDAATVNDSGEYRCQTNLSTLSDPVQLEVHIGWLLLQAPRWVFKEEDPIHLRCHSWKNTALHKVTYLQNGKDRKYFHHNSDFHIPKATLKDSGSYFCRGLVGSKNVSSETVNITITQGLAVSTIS

T6: mouse FcγRIII (mouse, UniProt P08508 31-215)
T6 construct: also called mFcγRIII; mouse FcγR3
T6 chain: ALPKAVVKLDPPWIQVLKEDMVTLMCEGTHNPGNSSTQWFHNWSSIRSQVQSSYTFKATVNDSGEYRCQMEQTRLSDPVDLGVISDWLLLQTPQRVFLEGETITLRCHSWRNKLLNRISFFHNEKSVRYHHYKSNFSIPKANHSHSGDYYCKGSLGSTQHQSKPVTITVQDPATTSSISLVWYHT

T7: mouse FcγRIV (mouse, UniProt A0A0B4J1G0 21-203)
T7 construct: also called mFcγRIV; mouse FcγR4
T7 sequence: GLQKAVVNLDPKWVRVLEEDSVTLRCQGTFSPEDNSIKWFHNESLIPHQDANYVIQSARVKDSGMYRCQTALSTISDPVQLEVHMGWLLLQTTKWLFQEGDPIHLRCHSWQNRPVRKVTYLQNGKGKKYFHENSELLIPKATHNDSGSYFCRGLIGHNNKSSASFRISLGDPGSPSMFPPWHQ


Legend:
mouse FcγRI = target: T1, mouse FcγRI; assay: SPR (Biacore T200, pH 7.4): His-tagged FcγR captured, antibody alone or 1:1 immune complex with trimeric CD154 injected at 100 nM; response divided by capture level [a]
human FcγRIIa (167R) = target: T2, human FcγRIIa (167R); assay: SPR (Biacore T200, pH 7.4): His-tagged FcγR captured, antibody alone or 1:1 immune complex with trimeric CD154 injected at 100 nM; response divided by capture level [c]
human FcγRIIb = target: T3, human FcγRIIb; assay: SPR (Biacore T200, pH 7.4): His-tagged FcγR captured, antibody alone or 1:1 immune complex with trimeric CD154 injected at 100 nM; response divided by capture level [d]
human FcγRIIIb (NA1) = target: T4, human FcγRIIIb (NA1); assay: SPR (Biacore T200, pH 7.4): His-tagged FcγR captured, antibody alone or 1:1 immune complex with trimeric CD154 injected at 100 nM; response divided by capture level [g]
human FcγRIIIb (NA2) = target: T5, human FcγRIIIb (NA2); assay: SPR (Biacore T200, pH 7.4): His-tagged FcγR captured, antibody alone or 1:1 immune complex with trimeric CD154 injected at 100 nM; response divided by capture level [h]
mouse FcγRIII = target: T6, mouse FcγRIII; assay: SPR (Biacore T200, pH 7.4): His-tagged FcγR captured, antibody alone or 1:1 immune complex with trimeric CD154 injected at 100 nM; response divided by capture level [c]
mouse FcγRIV = target: T7, mouse FcγRIV; assay: SPR (Biacore T200, pH 7.4): His-tagged FcγR captured, antibody alone or 1:1 immune complex with trimeric CD154 injected at 100 nM; response divided by capture level [d]
[1] = target: Zika virus (Asian strain, accession number KF993678) (Zika virus); assay: cell-based or functional assay
[2] = target: T8, Recombinant soluble E protein (0.8E-His) from DENV-3 (DENV-3, UniProt P27915 281-673)
[3] = target: T8, Recombinant soluble E protein …; assay: SPR Biacore T200

Binder | binding result (human FcγRIIb) | binding result (human FcγRIIIb (NA1)) | binding result (human FcγRIIIb (NA2)) | binding result (mouse FcγRIV) | Kd [2] [nM] | other results
Anti-CD154 antibody with Fc variant LALA + KAES (SG1095) (antibody, human IgG1, kappa, L234A L235A) heavy: EVQLVESGGGSVKPGGSLKLSCAASGFTFSDHYMYWVRQTPEKRLEWVAIISGGGSYTSYPDSMKGRFTISRDNAKNILHLQMSSLKSEDTAMYYCTRESNGKPGFAYWGQGTLVTVSAASTKGPSVFPLAPSSKSTSGGTAALGCLVKDYFPEPVTVSWNSGALTSGVHTFPAVLQSSGLYSLSSVVTVPSSSLGTQTYICNVNHKPSNTKVDKRVEPKSCDKTHTCPPCPAPEAAGGPSVFLFPPKPKDTLMISRTPEVTCVVVDVSHEDPEVKFNWYVDGVEVHNAKTKPREEQYNSTYRVVSVLTVLHQDWLNGKEYKCKVSNAALPAPISKTISKAKGQPREPQVYTLPPSREEMTKNQVSLTCLVKGFYPSDIAVEWESNGQPENNYKTTPPVLDSDGSFFLYSKLTVDKSRWQQGNVFSCSVMHEALHNHYTQKSLSLSP light: not shown | no binding (tested: 100 nM) | no binding (tested: 100 nM) | no binding (tested: 100 nM) | no binding (tested: 100 nM) | – | binding result (mouse FcγRI): no binding (tested: 100 nM); binding result (human FcγRIIa (167R)): no binding (tested: 100 nM); binding result (mouse FcγRIII): no binding (tested: 100 nM)
Anti-CD154 antibody with Fc variant LALA + KWES (SG1088) (antibody, human IgG1, kappa, L234A L235A) heavy: EVQLVESGGGSVKPGGSLKLSCAASGFTFSDHYMYWVRQTPEKRLEWVAIISGGGSYTSYPDSMKGRFTISRDNAKNILHLQMSSLKSEDTAMYYCTRESNGKPGFAYWGQGTLVTVSAASTKGPSVFPLAPSSKSTSGGTAALGCLVKDYFPEPVTVSWNSGALTSGVHTFPAVLQSSGLYSLSSVVTVPSSSLGTQTYICNVNHKPSNTKVDKRVEPKSCDKTHTCPPCPAPEAAGGPSVFLFPPKPKDTLMISRTPEVTCVVVDVSHEDPEVKFNWYVDGVEVHNAKTKPREEQYNSTYRVVSVLTVLHQDWLNGKEYKCKVSNWALPAPISKTISKAKGQPREPQVYTLPPSREEMTKNQVSLTCLVKGFYPSDIAVEWESNGQPENNYKTTPPVLDSDGSFFLYSKLTVDKSRWQQGNVFSCSVMHEALHNHYTQKSLSLSP light: not shown | no binding (tested: 100 nM) | no binding (tested: 100 nM) | no binding (tested: 100 nM) | no binding (tested: 100 nM) | – | –
DG_3CH1047-SG1106/3CL-SK1 (antibody) heavy: QVQLVQSGPDVEKPGASVKVSCKASGYTFTSYYMHWVRQAPGQGLEWMGVINPRGGSRRSAQKFQGRITMTRDTSTSTVYMELSSLRSEDTAVYYCARGGEALFYDSYTTPFDGGSWWFDPWGQGSLVTVSSASTKGPSVFPLAPSSKSTSGGTAALGCLVKDYFPEPVTVSWNSGALTSGVHTFPAVLQSSGLYSLSSVVTVPSSSLGTQTYICNVNHKPSNTKVDKRVEPKSCDKTHTCPPCPAPEAAGGPSVFLFPPKPKDTLMISRTPEVTCVVVDVSHEDPEVKFNWYVDGVEVHNAKTKPREEQYNSTYRVVSVLTVLHQDWLNGKEYKCKVSNAALPAPISKTISKAKGQPREPQVYTLPPSREEMTKNQVSLTCLVKGFYPSDIAVEWESNGQPENNYKTTPPVLDSDGSFFLYSKLTVDKSRWQQGNVFSCSVLHEALHAHYTRKELSLSP light: not shown | – | – | – | – | – | EC50 (µg/mL), FRNT neutralization, Average [1]: 0.63 µg/mL; EC50 (µg/mL), FRNT neutralization, Expt 1 [1]: 0.33 µg/mL; EC50 (µg/mL), FRNT neutralization, Expt 2 [1]: 0.93 µg/mL
DG_3CH-SG182/3CL-SK1 (antibody, V domains shown) VH: QVQLVQSGPDVEKPGASVKVSCKASGYTFTSNYIHWVRQAPGQGLEWMGVINPRGGSTASAQKFQGRITMTRDTSTSTVYMELSSLRSDDTAVYYCARGGRALFYDSYTTPRDGGSWWFDPWGQGSLVTVSS VL: DIQLTQSPSSLSASVGDRVTFTCQASQDIRKYLNWYQQKPGKAPKLLIYDASNLKTGVPSRFSGSGSGTDFTFTISSLQPEDVATYYCQQFDDLPITFGQGTRLQIKR | – | – | – | – | 6.35 | –
DG_3CH953-SG182/3CL499-SK1 (antibody, human IgG1, kappa, V domains shown) VH: QVQLVQSGPDVEKPGASVKVSCKASGYTFTSNYIHWVRQAPGQGLEWMGVINPRGGSRRSAQKFQGRITMTRDTSTSTVYMELSSLRSEDTAVYYCARGGRALFYDSYTTPFDGGSWWFDPWGQGSLVTVSS VL: DIQLTQSPSSLSASVGDRVTFTCQASQDIRKYLNWYQQKPGKAPKLLIYDASNLKFGVPSRFSGSGSGTDFTFTISSLQPEDVATYYCQQFDALPITFGQGTRLQIKR | – | – | – | – | – | binding result [3]: binds
DG_3CH987-SG182/3CL-SK1 (antibody, V domains shown) VH: QVQLVQSGPDVEKPGASVKVSCKASGYTFTSYYIHWVRQAPGQGLEWMGVINPRGGSRRSAQKFQGRITMTRDTSTSTVYMELSSLRSEDTAVYYCARGGRALFYDSYTTPFDGGSWWFDPWGQGSLVTVSS VL: DIQLTQSPSSLSASVGDRVTFTCQASQDIRKYLNWYQQKPGKAPKLLIYDASNLKTGVPSRFSGSGSGTDFTFTISSLQPEDVATYYCQQFDDLPITFGQGTRLQIKR | – | – | – | – | 0.000988 | –
